Literature values as cited in patent US6663886B2, “Inhibition of cell-cell binding by lipid assemblies” (Regents of the University of California, priority 1997, dated 2003).

Molecular target: T1, P-selectin (Homo sapiens, UniProt P16109)
T1 sequence (P16109 42-830): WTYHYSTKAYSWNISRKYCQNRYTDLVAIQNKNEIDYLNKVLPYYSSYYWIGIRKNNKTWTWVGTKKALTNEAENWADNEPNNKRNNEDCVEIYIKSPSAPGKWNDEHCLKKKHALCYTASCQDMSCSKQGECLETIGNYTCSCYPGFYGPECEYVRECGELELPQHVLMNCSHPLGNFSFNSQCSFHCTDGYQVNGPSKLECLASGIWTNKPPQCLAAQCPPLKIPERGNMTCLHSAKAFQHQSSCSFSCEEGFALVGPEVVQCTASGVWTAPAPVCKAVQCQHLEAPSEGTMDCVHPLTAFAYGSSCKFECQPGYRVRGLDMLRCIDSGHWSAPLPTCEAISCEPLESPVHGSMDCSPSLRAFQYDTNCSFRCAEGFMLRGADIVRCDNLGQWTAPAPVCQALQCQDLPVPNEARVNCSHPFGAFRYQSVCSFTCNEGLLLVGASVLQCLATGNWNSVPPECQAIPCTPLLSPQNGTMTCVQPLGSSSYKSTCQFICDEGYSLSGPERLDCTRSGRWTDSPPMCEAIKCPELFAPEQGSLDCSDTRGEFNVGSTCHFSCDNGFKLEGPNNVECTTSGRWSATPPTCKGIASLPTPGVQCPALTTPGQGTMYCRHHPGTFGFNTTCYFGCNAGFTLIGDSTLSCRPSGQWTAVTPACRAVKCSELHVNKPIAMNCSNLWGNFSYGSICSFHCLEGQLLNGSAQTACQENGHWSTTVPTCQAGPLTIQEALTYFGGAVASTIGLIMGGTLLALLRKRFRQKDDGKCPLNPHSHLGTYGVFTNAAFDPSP
Settings: literature (Nelson et al. 1993; Moore et al. 1991)

- binding affinity of P-selectin: in the nM range
B1: natural ligand: natural ligand of P-selectin, P-selectin glycoprotein ligand 1 (protein, UniProt Q14242 42-412, looked up)
P-selectin glycoprotein …: QATEYEYLDYDFLPETEPPEMLRNSTDTTPLTGPGTPESTTVEPAARRSTGLDAGGAVTELTTELANMGNLSTDSAAMEIQTTQPAATEAQTTQPVPTEAQTTPLAATEAQTTRLTATEAQTTPLAATEAQTTPPAATEAQTTQPTGLEAQTTAPAAMEAQTTAPAAMEAQTTPPAAMEAQTTQTTAMEAQTTAPEATEAQTTQPTATEAQTTPLAAMEALSTEPSATEALSMEPTTKRGLFIPFSVSSVTHKGIPMAASNLSVNYPVGAPDHISVKQCLLAILILALVATIFFVCTVVLAVRLSRKGHMYPVRNYSPTEMVCISSLLPDGGEGPSATANGGLSKAKSPGLTPEPREDREGDDLTLHSFLP
